Test results taken from patent US20070135338A1 (published 2007).
No end group written: not given here.

Target: GLP-1R on Rinm cells
Experiment: cell-based or functional assay

HAEGTFTSDVSSYLEGQAAKEFIAWLVKGRG (not fully specified) [GLP-1 peptide]
cAMP activity in Rinm cells (EC50): 400 pM
